Test results: patent US20170022287A1 (Chugai, published 2017)

What was measured:
mouse CD137 on T cells = mouse CD137 on T cells (mouse, UniProt P20334 24-256); assay: cell-based or functional assay
[1] = target: T1, mouse Fcγ receptor III extracellular domain with C-terminal His tag (mouse, UniProt P08508 31-215); assay: SPR (Biacore) kinetics, antibody captured on Protein L, mFcγR as analyte, 1:1 Langmuir model
T1 construct: extracellular domain; also called mFcγRIII; not shown: His tag at the C terminus
T1 sequence (looked up): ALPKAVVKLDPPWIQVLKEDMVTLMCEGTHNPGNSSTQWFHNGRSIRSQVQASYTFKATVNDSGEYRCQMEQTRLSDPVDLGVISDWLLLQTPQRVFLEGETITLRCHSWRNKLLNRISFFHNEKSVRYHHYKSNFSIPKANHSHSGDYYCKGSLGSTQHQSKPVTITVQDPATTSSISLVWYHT

[2] = target: full-length human CD137-Fc fusion protein (human); assay: ELISA, coated CD137-Fc protein 2 µg/mL, antibody 10 or 5 µg/mL; absorbance 620 nm divided by that of the uncoated well
full-length human CD137-Fc fusion protein (human), sequence (chain, as listed by the source limits assumed): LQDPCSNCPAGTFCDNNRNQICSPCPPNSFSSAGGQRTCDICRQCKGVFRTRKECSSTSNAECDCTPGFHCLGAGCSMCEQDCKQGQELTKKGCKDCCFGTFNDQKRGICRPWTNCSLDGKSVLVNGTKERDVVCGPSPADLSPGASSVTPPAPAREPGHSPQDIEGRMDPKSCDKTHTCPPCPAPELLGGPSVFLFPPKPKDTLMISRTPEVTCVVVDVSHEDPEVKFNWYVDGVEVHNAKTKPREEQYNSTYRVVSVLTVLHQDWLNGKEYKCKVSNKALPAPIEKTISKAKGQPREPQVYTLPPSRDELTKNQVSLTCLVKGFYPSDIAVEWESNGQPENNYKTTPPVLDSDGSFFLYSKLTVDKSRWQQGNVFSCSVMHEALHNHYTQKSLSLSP
Method: (§1) Fragmented human CD137-Fc fusion proteins were diluted to 2 μg/mL in an aqueous sodium carbonate solution adjusted to pH9.6. Fifty μL of a diluted fragmented human CD137-Fc fusion protein was added individually to each well of a Nunc MaxiSorp flat-bottom 96 well plate (Nunc). This was allowed to stand at 4° C. overnight or longer, and then the plate was allowed to stand at room temperature for one hour so that the plate has the same temperature as the room temperature. The solution containing the fragmented human CD137-Fc fusion protein was removed by tilting, and each well was washed three times with 300 μL of Wash buffer (TBS containing 0.1% Tween20, TaKaRa). Next, 150 μL of blocking buffer (TBS containing 2% BSA) was added to each well, and this was allowed to stand for one hour or more. The blocking buffer was removed by tilting, and each well was washed three times with Wash Buffer in a similar manner to an earlier step. Then, 50 μL of an antibody solution prepared in advance by dilution with TBS to 10 μg/mL or 5 μg/mL was added to each well. This was subjected to a speed of 600 rpm or so for one hour at room temperature to bind the antibody to the immobilized antigen. […] 100 μL of a secondary antibody solution produced by 1000-fold dilution with TBS containing 0.1% Tween20 was added to each well. For the secondary antibody, ANTIBODY ALKALINE PHOSPHATASE CONJUGATE HUMAN IMMUNOGLOBULIN ABSORBED Goat Anti-Human Kappa Alkaline Phosphate from BIOSOURCE was used in the case of antibodies carrying a Kappa chain, and Human Lambda Light Chain Antibody; Goat anti-Human Lambda Light Chain Antibody Alkaline Phosphatase Conjugated from BETHYL LABORATORIES INC. was used in the case of antibodies carrying a Lambda chain. […] Color development was performed using the BluePhos Microwell kit from KPL. After the chromogenic reaction was stopped using the AP stop solution from KPL, the absorbance was measured at 620 nm on an absorptiometer.

CRD1 [3] = target: T2, CRD1; assay: as above
T2 construct: also called fragmented human CD137-Fc fusion protein CRD1
T2 sequence (chain, as listed by the source limits assumed): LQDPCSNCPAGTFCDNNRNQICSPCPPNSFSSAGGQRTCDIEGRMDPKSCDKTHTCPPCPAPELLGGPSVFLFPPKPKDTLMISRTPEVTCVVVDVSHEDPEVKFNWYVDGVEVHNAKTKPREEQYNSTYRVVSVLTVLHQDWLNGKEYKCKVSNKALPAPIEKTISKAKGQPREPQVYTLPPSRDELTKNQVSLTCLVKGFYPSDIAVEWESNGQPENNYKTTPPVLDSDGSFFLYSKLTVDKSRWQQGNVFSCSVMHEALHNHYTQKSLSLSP
Method: as §1

CRD1-2 [4] = target: T3, CRD1-2; assay: as above
T3 construct: also called fragmented human CD137-Fc fusion protein CRD1-2
T3 sequence (chain, as listed by the source limits assumed): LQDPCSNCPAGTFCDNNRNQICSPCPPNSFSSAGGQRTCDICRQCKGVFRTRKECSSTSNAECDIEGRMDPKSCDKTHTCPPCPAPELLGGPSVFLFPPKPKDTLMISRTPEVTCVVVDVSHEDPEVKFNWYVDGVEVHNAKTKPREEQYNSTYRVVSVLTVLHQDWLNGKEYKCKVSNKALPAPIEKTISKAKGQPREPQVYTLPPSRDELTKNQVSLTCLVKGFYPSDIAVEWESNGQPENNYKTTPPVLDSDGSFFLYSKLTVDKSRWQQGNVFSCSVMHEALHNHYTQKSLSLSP
Method: as §1

CRD1 [5] = target: T2, CRD1; assay: ELISA, coated CD137-Fc protein 2 µg/mL, antibody 10 or 5 µg/mL, absorbance 620 nm; Non (uncoated well) 0.1705
Method: as §1

CRD1-3 [6] = target: T4, CRD1-3; assay: as above
T4 construct: also called fragmented human CD137-Fc fusion protein CRD1-3
T4 sequence (chain, as listed by the source limits assumed): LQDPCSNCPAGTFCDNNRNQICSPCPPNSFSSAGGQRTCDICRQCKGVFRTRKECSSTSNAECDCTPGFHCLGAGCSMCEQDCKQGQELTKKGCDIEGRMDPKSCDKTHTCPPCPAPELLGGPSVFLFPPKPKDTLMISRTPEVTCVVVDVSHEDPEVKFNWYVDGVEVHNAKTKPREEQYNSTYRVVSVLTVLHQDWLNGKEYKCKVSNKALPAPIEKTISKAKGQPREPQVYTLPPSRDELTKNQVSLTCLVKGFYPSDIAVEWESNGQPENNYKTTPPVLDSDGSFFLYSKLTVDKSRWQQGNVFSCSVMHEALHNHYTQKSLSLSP
Method: as §1

CRD1-2 [7] = target: T3, CRD1-2; assay: as above
Method: as §1

CRD2-4 [8] = target: T5, CRD2-4; assay: as above
T5 construct: also called fragmented human CD137-Fc fusion protein CRD2-4
T5 sequence (chain, as listed by the source limits assumed): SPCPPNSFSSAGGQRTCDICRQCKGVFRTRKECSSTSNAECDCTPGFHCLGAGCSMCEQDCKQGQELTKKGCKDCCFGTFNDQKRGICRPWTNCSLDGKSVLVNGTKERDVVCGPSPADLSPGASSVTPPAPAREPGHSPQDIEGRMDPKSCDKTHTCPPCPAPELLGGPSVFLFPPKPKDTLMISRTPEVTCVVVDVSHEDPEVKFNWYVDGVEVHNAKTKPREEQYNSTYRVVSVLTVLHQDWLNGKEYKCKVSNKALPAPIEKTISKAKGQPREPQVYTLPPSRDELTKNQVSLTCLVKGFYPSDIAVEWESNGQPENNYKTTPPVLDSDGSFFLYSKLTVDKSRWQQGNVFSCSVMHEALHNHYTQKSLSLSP
Method: as §1

CRD2-3 [9] = target: T6, CRD2-3; assay: as above
T6 construct: also called fragmented human CD137-Fc fusion protein CRD2-3
T6 sequence (chain, as listed by the source limits assumed): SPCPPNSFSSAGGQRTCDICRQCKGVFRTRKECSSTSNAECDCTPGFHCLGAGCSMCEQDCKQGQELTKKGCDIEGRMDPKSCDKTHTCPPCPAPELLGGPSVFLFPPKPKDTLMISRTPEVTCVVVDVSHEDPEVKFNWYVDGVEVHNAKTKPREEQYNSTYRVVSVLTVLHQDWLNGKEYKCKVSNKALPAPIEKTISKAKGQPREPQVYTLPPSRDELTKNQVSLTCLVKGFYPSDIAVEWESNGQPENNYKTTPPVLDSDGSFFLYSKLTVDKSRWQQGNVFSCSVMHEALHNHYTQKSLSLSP
Method: as §1

CRD3-4 [10] = target: T7, CRD3-4; assay: as above
T7 construct: also called fragmented human CD137-Fc fusion protein CRD3-4
T7 sequence (chain, as listed by the source limits assumed): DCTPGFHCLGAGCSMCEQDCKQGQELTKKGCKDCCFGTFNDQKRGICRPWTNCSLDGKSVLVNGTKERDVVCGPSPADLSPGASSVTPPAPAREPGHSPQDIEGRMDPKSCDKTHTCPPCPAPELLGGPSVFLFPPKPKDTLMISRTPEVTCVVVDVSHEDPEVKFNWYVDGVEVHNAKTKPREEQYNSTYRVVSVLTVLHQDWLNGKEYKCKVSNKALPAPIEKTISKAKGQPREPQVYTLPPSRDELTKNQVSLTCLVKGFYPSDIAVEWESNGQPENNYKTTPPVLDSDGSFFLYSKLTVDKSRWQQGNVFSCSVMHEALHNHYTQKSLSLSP
Method: as §1

[11] = target: full-length human CD137-Fc fusion protein (human); assay: as above
Method: as §1

CRD1-3 [12] = target: T4, CRD1-3; assay: ELISA, coated CD137-Fc protein 2 µg/mL, antibody 10 or 5 µg/mL; absorbance 620 nm divided by that of the uncoated well
Method: as §1

CRD2-4 [13] = target: T5, CRD2-4; assay: as above
Method: as §1

CRD2-3 [14] = target: T6, CRD2-3; assay: as above
Method: as §1

CRD3-4 [15] = target: T7, CRD3-4; assay: as above
Method: as §1

mouse CD137 on T cells, sequence (P20334 24-256): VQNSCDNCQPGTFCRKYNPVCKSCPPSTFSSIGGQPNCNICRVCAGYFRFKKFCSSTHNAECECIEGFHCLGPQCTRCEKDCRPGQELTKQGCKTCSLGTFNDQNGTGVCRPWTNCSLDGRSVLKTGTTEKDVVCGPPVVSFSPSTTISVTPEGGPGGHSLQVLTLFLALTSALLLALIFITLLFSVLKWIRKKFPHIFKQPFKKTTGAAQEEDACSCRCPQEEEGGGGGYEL

B1: 1D8VH-MB492/1D8VL-mk0 (antibody, mouse IgG1, kappa, V domains shown)
VH: QVQLKEAGPGLVQPTQTLSLTCTVSGFSLTSDGVHWIRQPPGKGLEWMGIIYYDGGTDYNSAIKSRLSISRDTSKSQVFLKINSLQTDDTAMYYCARIHFDYWGQGVMVTVSS
VL: DIVLTQSPTTIAASPGEKVTITCRASSSVSYMYWYQQKSGASPKLWIYDTSKLASGVPNRFSGSGSGTSYSLAINTMETEDAATYYCQQWSSTPLTFGSGTKLEIKR
specific activity, mouse IFN-γ in the supernatant of spleen cells (ELISA) (mouse CD137 on T cells): ~8 fold

B2: H237-mIgG1/MRAL-k0 (antibody)
heavy: QVQLQESGPGLVKPSETLSLTCAVSGHSISHDHAWSWVRQPPGEGLEWIGFISYSGITNYNPSLQGRVTISRDNSKNTLYLQMNSLRAEDTAVYYCARSLARTTAMDYWGEGTLVTVSSAKTTPPSVYPLAPGSAAQTNSMVTLGCLVKGYFPEPVTVTWNSGSLSSGVHTFPAVLQSDLYTLSSSVTVPSSTWPSETVTCNVAHPASSTKVDKKIVPRDCGCKPCICTVPEVSSVFIFPPKPKDVLTITLTPKVTCVVVDISKDDPEVQFSWFVDDVEVHTAQTQPREEQFNSTFRSVSELPIMHQDWLNGKEFKCRVNSAAFPAPIEKTISKTKGRPKAPQVYTIPPPKEQMAKDKVSLTCMITDFFPEDITVEWQWNGQPAENYKNTQPIMDTDGSYFVYSKLNVQKSNWEAGNTFTCSVLHEGLHNHHTEKSLSHSPGK
light: not shown
notes: Anti-human IL-6 receptor variable region H237 with mouse IgG1 constant region; copies: 2 + 2
Kd [1]: 282 nM

B3: R12 (antibody, V domains shown)
VH: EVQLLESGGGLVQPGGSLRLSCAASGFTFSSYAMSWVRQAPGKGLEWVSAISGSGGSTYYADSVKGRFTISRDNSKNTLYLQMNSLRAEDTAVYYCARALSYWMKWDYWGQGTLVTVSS
VL: DIQMTQSPSSLSASVGDRVTITCRASQSISSYLNWYQQKPGKAPKLLIYAASSLQSGVPSRFSGSGSGTDFTLTISSLQPEDFATYYCQQFNGFPLTFGGGTKVEIK
notes: Synthetic library clone; Fab on phage in the phage ELISA
Ratio with respect to Non-Coating [2]: 1.1

B4: R11 (antibody, V domains shown)
VH: QVQLLESGGGLVQPGGSLRLSCAASGFTFSSYAMSWVRQAPGKGLEWVSAISGSGGSTYYADSVKGRFTISRDNSKNTLYLQMNSLRAEDTAVYYCARDKWYYYPALDYWGQGTLVTVSS
VL: DIQMTQSPSSLSASVGDRVTITCRASQSISSYLNWYQQKPGKAPKLLIYAASSLQSGVPSRFSGSGSGTDFTLTISSLQPEDFATYYCQQFSRFPLTFGGGTKVEIK
notes: as for B3
Ratio with respect to Non-Coating [2]: 1

B5: R8 (antibody, V domains shown)
VH: QVQLQESGPGLVKPSETLSLTCAVSGYSISSGYYWGWIRQPPGKGLEWIGSIYHSGSTYYNPSLKSRVTISVDTSKNQFSLKLSSVTAADTAVYYCARQHSFTRYYGYYYFDYWGQGTTVTVSS
VL: DIQMTQSPSSLSASVGDRVTITCRASQSISSYLNWYQQKPGKAPKLLIYAASSLQSGVPSRFSGSGSGTDFTLTISSLQPEDFATYYCLQSDSIPLTFGGGTKVEIK
notes: as for B3
Ratio with respect to Non-Coating (CRD1 [3]): 0.7 | Ratio with respect to Non-Coating (CRD1-2 [4]): 0.5

B6: R19 (antibody, V domains shown)
VH: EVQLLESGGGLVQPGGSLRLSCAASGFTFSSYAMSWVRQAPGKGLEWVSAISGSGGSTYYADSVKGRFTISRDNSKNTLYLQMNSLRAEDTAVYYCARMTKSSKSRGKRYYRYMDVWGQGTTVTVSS
VL: DIQMTQSPSSLSASVGDRVTITCRASQSISSYLNWYQQKPGKAPKLLIYAASSLQSGVPSRFSGSGSGTDFTLTISSLQPEDFATYYCLQVYSSPLTFGGGTKVEIK
notes: as for B3
Ratio with respect to Non-Coating [2]: 0.9

B7: R13 (antibody, V domains shown)
VH: QVQLVESGGGLVQPGGSLRLSCAASGFTFSYYDIQWVRQAPGKGLEWVSSISPSGQSTYYRREVKGRFTISRDNSKNTLYLQMNSLRAEDTAVYYCARRTGREYGGGWYFDYWGQGTLVTVSS
VL: DIQMTQSPSSLSASVGDRVTITCRASQSISSYLNWYQQKPGKAPKLLIYAASSLQSGVPSRFSGSGSGTDFTLTISSLQPEDFATYYCQQFSRFPLTFGGGTKVEIK
notes: as for B3
Ratio with respect to Non-Coating [2]: 0.4

B8: R16 (antibody, V domains shown)
VH: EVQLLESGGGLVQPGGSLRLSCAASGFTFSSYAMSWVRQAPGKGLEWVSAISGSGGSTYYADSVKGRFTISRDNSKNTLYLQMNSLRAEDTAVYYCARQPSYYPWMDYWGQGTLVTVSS
VL: DIQMTQSPSSLSASVGDRVTITCRASQSISSYLNWYQQKPGKAPKLLIYAASSLQSGVPSRFSGSGSGTDFTLTISSLQPEDFATYYCQQFNNYPLTFGGGTKVEIK
notes: as for B3
ELISA color development level (CRD1 [5]): 0.286 | ELISA color development level (CRD1-3 [6]): 2.24 | ELISA color development level (CRD1-2 [7]): 0.269 | ELISA color development level (CRD2-4 [8]): 2.17 | ELISA color development level (CRD2-3 [9]): 2.54 | ELISA color development level (CRD3-4 [10]): 2.63 | ELISA color development level [11]: 1.93 | Ratio with respect to Non-Coating (CRD1 [3]): 1.7 | Ratio with respect to Non-Coating (CRD1-3 [12]): 13.1 | Ratio with respect to Non-Coating (CRD1-2 [4]): 1.6 | Ratio with respect to Non-Coating (CRD2-4 [13]): 12.7 | Ratio with respect to Non-Coating (CRD2-3 [14]): 14.9 | Ratio with respect to Non-Coating (CRD3-4 [15]): 15.4 | Ratio with respect to Non-Coating [2]: 11.3

B9: R14 (antibody, V domains shown)
VH: QVQLLESGGGLVQPGGSLRLSCAASGFTFSSYAMSWVRQAPGKGLEWVSAISGSGGSTYYADSVKGRFTISRDNSKNTLYLQMNSLRAEDTAVYYCARDKWYYYPALDYWGQGTLVTVSS
VL: DIQMTQSPSSLSASVGDRVTITCRASQSISSYLNWYQQKPGKAPKLLIYAASSLQSGVPSRFSGSGSGTDFTLTISSLQPEDFATYYCLQVYRSPLTFGGGTKVEIK
notes: as for B3
Ratio with respect to Non-Coating [2]: 0.9

B10: R15 (antibody, V domains shown)
VH: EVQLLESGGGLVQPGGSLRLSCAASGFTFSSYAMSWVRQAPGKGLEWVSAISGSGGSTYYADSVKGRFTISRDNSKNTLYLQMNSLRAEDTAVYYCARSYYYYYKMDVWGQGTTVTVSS
VL: DIQMTQSPSSLSASVGDRVTITCRASQSISSYLNWYQQKPGKAPKLLIYAASSLQSGVPSRFSGSGSGTDFTLTISSLQPEDFATYYCQQFVRHPPTFGGGTKVEIK
notes: as for B3
Ratio with respect to Non-Coating [2]: 0.6
